This is an account of results in PMC10853780.

The target in series [1] is HA-tagged DAXX (Y124A, R371W) (UniProt Q9UER7). Description: co-IP; as the DAXX-ATRX co-IP (anti-HA magnetic beads on SF188 cell extracts, ethidium bromide), proteins separated on a 16% acrylamide gel; immunoblot for DAXX, H3.3 and H4. For orientation: In western blotting, separated proteins are transferred to a membrane and probed.
Series [2] has as its target HA-tagged DAXX (Y124A) (human) (UniProt Q9UER7). Description: co-IP; anti-HA magnetic beads (Pierce HA-Tag Magnetic IP/Co-IP Kit) on SF188 cell extracts (500 μg protein), 4 h at 4°C, 50 μg/ml ethidium bromide throughout, final wash with 200 mM NaCl; immunoblot for DAXX and ATRX.

As for H3.3-H4 heterodimer, the “percent decrease of the interaction, corrected for the reduced stability of the mutant” value in series [1] was “its interaction with H3.3 and H4 was decreased by > 80%”.
“alpha-thalassemia/mental retardation syndrome X-linked (ATRX), P46100 1-2492” yielded a percent reduction of the interaction against DAXX WT in series [2] greater than 95%.
